Test results taken from patent US20250011363A1, “OPTIMIZED SHORTENED PEPTIDE THAT BINDS TO ACETYLCHOLINE RECEPTOR, AND USE THEREOF” (SKINMED CO., LTD., priority 2021, published 2025).

These substances were tested against acetylcholine receptor (Homo sapiens, UniProt P02708) (assay: SPR binding affinity (RU) of optimized 5mer/6mer/7mer peptides, Examples 6-7). Details: 6mer-1 Top sequence; SPR; peptides tested at 10 μM.
Method in brief: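 Response units from SPR give the binding values listed. Each synthesized peptide was run at 10 μM over the receptor.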

Sequence of acetylcholine receptor (P02708 21-457): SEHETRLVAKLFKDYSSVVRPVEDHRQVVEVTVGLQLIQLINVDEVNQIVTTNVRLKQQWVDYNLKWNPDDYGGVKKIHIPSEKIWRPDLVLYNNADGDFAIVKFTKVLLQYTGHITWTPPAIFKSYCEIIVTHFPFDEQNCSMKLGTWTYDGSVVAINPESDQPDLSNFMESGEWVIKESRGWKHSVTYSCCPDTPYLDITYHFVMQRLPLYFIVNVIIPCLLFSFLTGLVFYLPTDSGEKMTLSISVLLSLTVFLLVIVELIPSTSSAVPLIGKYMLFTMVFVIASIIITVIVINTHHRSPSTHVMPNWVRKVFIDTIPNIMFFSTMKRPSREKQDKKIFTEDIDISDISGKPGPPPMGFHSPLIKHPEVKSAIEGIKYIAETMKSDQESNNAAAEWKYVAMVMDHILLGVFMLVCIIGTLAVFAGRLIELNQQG

Point of comparison: 6mer-1-213 (KRRVRK), Binding affinity 127 Ru. Against it:
- 6mer-1-318 (KKSRRK) — higher, 145 Ru
- 6mer-1-242 (KRQYLK) — higher, 148 Ru
- 6mer-1-221 (KKWFQR) — higher, 148 Ru
- 6mer-1-256 (KRVRTK) — lower, 125 Ru
- 6mer-1-307 (KRWYRR) — higher, 153 Ru
- 6mer-1-349 (KRLYSK) — lower, 123 Ru
- 6mer-1-284 (KRSRQK) — higher, 145 Ru
- 6mer-1-239 (RKVLCR) — higher, 136 Ru
- 6mer-1-220 (KRQRQK) — higher, 148 Ru
- 6mer-1-235 (KKRYCR) — higher, 148 Ru
- 6mer-1-302 (RRGQSR) — higher, 151 Ru
- 6mer-1-252 (RRWIRR) — higher, 131 Ru

Same assay, conditions: 6mer-2 Top sequence; SPR; peptides tested at 10 μM

Point of comparison: 6mer-2-20 (RVQTRR), Binding affinity 137 Ru. Against it:
- 6mer-2-197 (RGQYRR) — lower, 126 Ru
- 6mer-2-23 (RWVRKK) — higher, 148 Ru
- 6mer-2-174 (KLLRKR) — higher, 142 Ru
- 6mer-2-194 (KLRLRK) — higher, 154 Ru
- 6mer-2-97 (RQFYRK) — higher, 154 Ru

Same assay, conditions: SPR, Resonance Units; 5mer Bottom sequence (bottom combinations); peptides tested at 10 μM

Point of comparison: 5mer-986 (RPMDK), Binding affinity 12 Ru. Against it:
- 5mer-1032 (RHHMR) — higher, 23 Ru
- 5mer-727 (KMDAR) — higher, 31 Ru
- 5mer-751 (RYMMR) — higher, 20 Ru
- 5mer-733 (KTCDR) — higher, 23 Ru
- 5mer-996 (RMTKK) — higher, 32 Ru
- 5mer-937 (KASNR) — higher, 21 Ru
- 5mer-610 (KCDDK) — higher, 16 Ru
- 5mer-938 (RIEFK) — higher, 18 Ru
- 5mer-959 (KPNMK) — higher, 29 Ru
- 5mer-913 (KHTFK) — higher, 13 Ru
- 5mer-1091 (KTEHR) — higher, 29 Ru
- 5mer-623 (KNTGR) — higher, 19 Ru
- 5mer-707 (KIEAK) — higher, 32 Ru
- 5mer-671 (KMNAK) — higher, 21 Ru
- 5mer-997 (RYPHR) — higher, 30 Ru
- 5mer-1003 (RMTVR) — lower, 11 Ru
- 5mer-687 (RMEIR) — higher, 22 Ru
- 5mer-1094 (RYSMK) — higher, 15 Ru
- 5mer-1035 (KEHVR) — higher, 19 Ru
- 5mer-1060 (KTHIK) — higher, 29 Ru
- 5mer-940 (KCMGK) — higher, 18 Ru
- 5mer-1103 (KKSHR) — higher, 18 Ru

Same assay, conditions: SPR, Resonance Units; peptides tested at 10 μM; 6mer-1 Bottom sequence

Point of comparison: 6mer-1-1034 (KKASDR), Binding affinity 24 Ru. Against it:
- 6mer-1-1123 (RRDNVK) — higher, 41 Ru
- 6mer-1-1168 (KKEKFR) — higher, 40 Ru
- 6mer-1-1109 (KRCCVR) — higher, 41 Ru
- 6mer-1-1149 (RKMTPK) — higher, 30 Ru
- 6mer-1-1055 (KRCNDK) — higher, 40 Ru
- 6mer-1-1152 (RKYKEK) — lower, 23 Ru
- 6mer-1-1125 (KKPTDR) — higher, 26 Ru
- 6mer-1-1084 (KKCCPK) — higher, 25 Ru
- 6mer-1-1178 (RKKMAK) — higher, 29 Ru

Same assay, conditions: SPR, Resonance Units; peptides tested at 10 μM; 6mer-1 Bottom sequence (Table 11)

Point of comparison: 6mer-1-682 (KKKDIR), Binding affinity 30 Ru. Against it:
- 6mer-1-647 (RKYNVR) — lower, 14 Ru
- 6mer-1-732 (RRAAVR) — lower, 26 Ru
- 6mer-1-695 (KRADVK) — lower, 13 Ru
- 6mer-1-645 (RRTTIR) — higher, 33 Ru
- 6mer-1-687 (RREWIK) — lower, 23 Ru
- 6mer-1-775 (KKYPWR) — lower, 12 Ru
- 6mer-1-736 (KKATDK) — lower, 15 Ru
- 6mer-1-739 (RKCCEK) — higher, 32 Ru

Same assay, conditions: SPR, Resonance Units; peptides tested at 10 μM; 6mer-2 Bottom sequence

Point of comparison: 6mer-2-893 (REHVRR), Binding affinity 17 Ru. Against it:
- 6mer-2-652 (RTTMRK) — lower, 16 Ru
- 6mer-2-816 (RKMGKR) — lower, 15 Ru
- 6mer-2-630 (RYAFRR) — higher, 27 Ru
- 6mer-2-867 (KYWEKK) — higher, 32 Ru
- 6mer-2-747 (RANFRR) — higher, 29 Ru
- 6mer-2-611 (RIKMRR) — higher, 22 Ru
- 6mer-2-719 (KIKPRR) — higher, 29 Ru
- 6mer-2-680 (KNHGKR) — lower, 15 Ru
- 6mer-2-915 (KNCWKR) — higher, 29 Ru
- 6mer-2-801 (RPNIRK) — higher, 24 Ru
- 6mer-2-726 (KHHKKK) — higher, 25 Ru
- 6mer-2-779 (KAAHRR) — lower, 13 Ru
- 6mer-2-802 (KETKRR) — higher, 24 Ru
- 6mer-2-791 (KNMNRK) — higher, 27 Ru
- 6mer-2-921 (RPKAKK) — higher, 22 Ru
- 6mer-2-656 (KADPRR) — lower, 11 Ru
- 6mer-2-687 (KADGRK) — lower, 16 Ru
- 6mer-2-798 (RDTPKK) — the same, 17 Ru

Same assay, conditions: SPR, Resonance Units; peptides tested at 10 μM; 6mer-2 Top sequence

Point of comparison: 6mer-2-485 (RQIQKR), Binding affinity 148 Ru. Against it:
- 6mer-2-556 (RSICKK) — the same, 148 Ru
- 6mer-2-501 (KSYSKK) — lower, 144 Ru
- 6mer-2-439 (KWFSKR) — higher, 153 Ru
- 6mer-2-429 (RWRQRK) — lower, 123 Ru
- 6mer-2-533 (KRLLKR) — lower, 142 Ru
- 6mer-2-568 (KGFQKK) — lower, 142 Ru
- 6mer-2-446 (RQLQKK) — higher, 153 Ru
- 6mer-2-452 (KGLYKR) — lower, 146 Ru

Same assay, conditions: SPR, Resonance Units; peptides tested at 10 μM; 6mer-2 Top sequence (Table 12)

Point of comparison: 6mer-2-298 (KWICKK), Binding affinity 149 Ru. Against it:
- 6mer-2-322 (RRYSRR) — lower, 148 Ru
- 6mer-2-203 (KSRTKR) — lower, 135 Ru
- 6mer-2-221 (KQVRKK) — higher, 153 Ru
- 6mer-2-284 (KLRSKR) — higher, 151 Ru
- 6mer-2-275 (KLITRR) — lower, 135 Ru

Same assay, conditions: SPR, peptides at 10 μM; 6mer-2 Bottom sequence

Point of comparison: 6mer-2-1120 (RDMMKK), Binding affinity 28 Ru. Against it:
- 6mer-2-1126 (RHEVRR) — lower, 23 Ru
- 6mer-2-1071 (RTTWRK) — lower, 25 Ru
- 6mer-2-1018 (RPTKKK) — lower, 24 Ru

Same assay, conditions: SPR, peptides tested at 10 μM; 5mer Top sequence

Point of comparison: 5mer-56 (KRFCK), Binding affinity 59 Ru. Against it:
- 5mer-15 (KGVCK) — higher, 75 Ru
- 5mer-33 (RRISK) — the same, 59 Ru
- 5mer-361 (RSYQR) — lower, 58 Ru
- 5mer-342 (KVYQR) — higher, 69 Ru
- 5mer-391 (KVFRR) — higher, 72 Ru
- 5mer-470 (KQRSK) — lower, 57 Ru
- 5mer-93 (KWVYR) — higher, 79 Ru
- 5mer-206 (KLQLR) — lower, 57 Ru
- 5mer-24 (KSQCR) — higher, 67 Ru
- 5mer-504 (KQIQR) — higher, 72 Ru
- 5mer-460 (RLQQR) — higher, 74 Ru
- 5mer-339 (KWVRK) — higher, 87 Ru
- 5mer-86 (RRLCK) — lower, 55 Ru
- 5mer-494 (RGFCK) — lower, 54 Ru
- 5mer-427 (RGLYR) — higher, 87 Ru
- 5mer-18 (RQLRR) — higher, 69 Ru
- 5mer-507 (KWVQK) — higher, 84 Ru

Same assay, conditions: SPR, peptides tested at 10 μM; 5mer Top sequence (top combinations)

Point of comparison: 5mer-226 (RRYTR), Binding affinity 60 Ru. Against it:
- 5mer-577 (KLVTK) — higher, 77 Ru
- 5mer-546 (KVVLK) — higher, 65 Ru
- 5mer-239 (KRLYR) — higher, 61 Ru
- 5mer-597 (KLVSR) — higher, 68 Ru
- 5mer-290 (RGYYR) — lower, 57 Ru
- 5mer-530 (RWRRR) — higher, 80 Ru
- 5mer-600 (KLYSK) — higher, 64 Ru
- 5mer-581 (KGVLR) — higher, 65 Ru

Same assay, conditions: SPR, peptides tested at 10 μM; 6mer-1 Bottom sequence (Table 11)

Point of comparison: 6mer-1-966 (RRNSWK), Binding affinity 22 Ru. Against it:
- 6mer-1-808 (RRFEKK) — higher, 24 Ru
- 6mer-1-805 (KRDTMK) — higher, 24 Ru
- 6mer-1-833 (RRYKNR) — lower, 19 Ru
- 6mer-1-917 (KRADDK) — higher, 27 Ru
- 6mer-1-881 (KKHMER) — lower, 20 Ru

Same assay, conditions: SPR, peptides tested at 10 μM; 6mer-1 Top sequence

Point of comparison: 6mer-1-571 (RKLLCK), Binding affinity 154 Ru. Against it:
- 6mer-1-572 (KRVLLK) — lower, 126 Ru
- 6mer-1-441 (RRVYYR) — lower, 146 Ru
- 6mer-1-473 (KKVLSK) — the same, 154 Ru
- 6mer-1-596 (RKGVLR) — lower, 148 Ru
- 6mer-1-422 (KRVRQR) — the same, 154 Ru
- 6mer-1-522 (RKRRLR) — lower, 126 Ru

Same assay, conditions: SPR, peptides tested at 10 μM; 6mer-1 Top sequence (top combinations)

Point of comparison: 6mer-1-90 (KKGISK), Binding affinity 125 Ru. Against it:
- 6mer-1-71 (KRWFYK) — lower, 121 Ru
- 6mer-1-162 (KKSLSK) — higher, 142 Ru
- 6mer-1-103 (RKRICK) — lower, 122 Ru
- 6mer-1-35 (RRGRQR) — higher, 136 Ru
- 6mer-1-28 (RRWISK) — the same, 125 Ru
- 6mer-1-30 (RRQVRR) — higher, 154 Ru

Same assay, conditions: SPR; XRRGVRR-7mer and RRGVRRX-7mer

For 3679 (RRGVRRD) [compound 3679], the “Binding affinity, values relative to the RRGVRR sequence” value was 61.

Same assay, conditions: SPR; peptides tested at 10 μM; 5mer Bottom sequence

Point of comparison: 5mer-1131 (KCDGK), Binding affinity 14 Ru. Against it:
- 5mer-1137 (KEEEK) — higher, 22 Ru
- 5mer-864 (KYHPR) — higher, 25 Ru
- 5mer-1175 (RDMIR) — higher, 30 Ru
- 5mer-1186 (KMWVK) — lower, 12 Ru
- 5mer-819 (RNTIK) — higher, 19 Ru
